# Assay results reported in patent US20150037339A1 (Regeneron, published 2015).
# T1: BMP9 (human, UniProt Q9UK05 320-429)
# T1 sequence (looked up): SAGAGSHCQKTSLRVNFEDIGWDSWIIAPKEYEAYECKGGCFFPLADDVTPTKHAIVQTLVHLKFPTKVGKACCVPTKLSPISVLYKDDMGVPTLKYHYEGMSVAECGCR
# T2: BMP10 (human, UniProt O95393 317-424)
# T2 sequence (looked up): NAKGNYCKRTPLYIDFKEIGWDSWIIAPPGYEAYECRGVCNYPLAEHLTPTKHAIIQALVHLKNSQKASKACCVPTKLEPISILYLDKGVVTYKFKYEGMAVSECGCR
# T3: Activin A (homodimer of two inhibin βA subunits; R&D Systems, #338-AC) (human, UniProt P08476 311-426)
# T3 construct: Bought protein; also called inhibin-βA dimer
# T3 sequence: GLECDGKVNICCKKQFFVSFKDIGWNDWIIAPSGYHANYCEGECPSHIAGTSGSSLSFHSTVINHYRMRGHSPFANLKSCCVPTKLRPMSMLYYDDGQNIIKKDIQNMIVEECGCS
# Columns and labels:
# [1] = target: T1, BMP9; assay: cell-based or functional assay
# [2] = target: T2, BMP10; assay: cell-based or functional assay
# [3] = target: T3, Activin A (homodimer of two inhibin βA …); assay: SPR blocking: 5 nM Activin A + 15 nM binder over hActRIIA-hFc surface
# Description: (§1) The binding signal (RU) was measured at 150 seconds after the start of the injection, and this signal was subtracted by the measured RU value for a negative control reference surface to determine the specific binding signal.
# [4] = target: T3, Activin A (homodimer of two inhibin βA …); assay: SPR blocking: 5 nM Activin A + 30 nM binder over hActRIIA-hFc surface
# Description: as §1
# [5] = target: T3, Activin A (homodimer of two inhibin βA …); assay: SPR blocking: 5 nM Activin A + 60 nM binder over hActRIIA-hFc surface
# Description: as §1
# [6] = target: T3, Activin A (homodimer of two inhibin βA …); assay: SPR blocking: 5 nM Activin A + 0 nM binder over Follistatin-288 surface
# Description: as §1
# [7] = target: T3, Activin A (homodimer of two inhibin βA …); assay: SPR blocking: 5 nM Activin A + 0.00 nM binder over hActRIIA-hFc surface
# Description: as §1
# [8] = target: T3, Activin A (homodimer of two inhibin βA …); assay: SPR blocking: 5 nM Activin A + 0.94 nM binder over hActRIIA-hFc surface
# Description: as §1
# [9] = target: T3, Activin A (homodimer of two inhibin βA …); assay: SPR blocking: 5 nM Activin A + 1.88 nM binder over hActRIIA-hFc surface
# Description: as §1
# [10] = target: T3, Activin A (homodimer of two inhibin βA …); assay: SPR blocking: 5 nM Activin A + 3.75 nM binder over hActRIIA-hFc surface
# Description: as §1
# [11] = target: T3, Activin A (homodimer of two inhibin βA …); assay: SPR blocking: 5 nM Activin A + 7.50 nM binder over hActRIIA-hFc surface
# Description: as §1
# [12] = target: T3, Activin A (homodimer of two inhibin βA …); assay: SPR blocking: 5 nM Activin A + 15 nM binder over Follistatin-288 surface
# Description: as §1
# [13] = target: T3, Activin A (homodimer of two inhibin βA …); assay: SPR blocking: 5 nM Activin A + 30 nM binder over Follistatin-288 surface
# Description: as §1
# [14] = target: T3, Activin A (homodimer of two inhibin βA …); assay: SPR blocking: 5 nM Activin A + 60 nM binder over Follistatin-288 surface
# Description: as §1
# [15] = target: T3, Activin A (homodimer of two inhibin βA …); assay: SPR blocking: 5 nM Activin A + 7.5 nM binder over Follistatin-288 surface
# Description: as §1
# [16] = target: T3, Activin A (homodimer of two inhibin βA …); assay: SPR blocking: 5 nM Activin A + 0.94 nM binder over Follistatin-288 surface
# Description: as §1
# [17] = target: T3, Activin A (homodimer of two inhibin βA …); assay: SPR blocking: 5 nM Activin A + 1.88 nM binder over Follistatin-288 surface
# Description: as §1
# [18] = target: T3, Activin A (homodimer of two inhibin βA …); assay: SPR blocking: 5 nM Activin A + 3.75 nM binder over Follistatin-288 surface
# Description: as §1
# [19] = target: T3, Activin A (homodimer of two inhibin βA …); assay: SPR blocking: 5 nM Activin A + 15 nM binder over hActRIIB-hFc (Control 4) surface
# [20] = target: T3, Activin A (homodimer of two inhibin βA …); assay: SPR blocking: 5 nM Activin A + 30 nM binder over hActRIIB-hFc (Control 4) surface
# Description: as §1
# [21] = target: T3, Activin A (homodimer of two inhibin βA …); assay: SPR blocking: 5 nM Activin A + 60 nM binder over hActRIIB-hFc (Control 4) surface
# Description: as §1
# [22] = target: T3, Activin A (homodimer of two inhibin βA …); assay: SPR blocking: 5 nM Activin A + 0.00 nM binder over hActRIIB-hFc (Control 4) surface
# Description: as §1
# [23] = target: T3, Activin A (homodimer of two inhibin βA …); assay: SPR blocking: 5 nM Activin A + 0.94 nM binder over hActRIIB-hFc (Control 4) surface
# [24] = target: T3, Activin A (homodimer of two inhibin βA …); assay: SPR blocking: 5 nM Activin A + 1.88 nM binder over hActRIIB-hFc (Control 4) surface
# Description: as §1
# [25] = target: T3, Activin A (homodimer of two inhibin βA …); assay: SPR blocking: 5 nM Activin A + 3.75 nM binder over hActRIIB-hFc (Control 4) surface
# Description: as §1
# [26] = target: T3, Activin A (homodimer of two inhibin βA …); assay: SPR blocking: 5 nM Activin A + 7.50 nM binder over hActRIIB-hFc (Control 4) surface
IC50 [M]; inhibition of 4 nM BMP10 in W-20-17/BRE-luc cells [2] [M],% bound RU w/no inhibitor [3] [%],% bound RU w/no inhibitor [4] [%],% bound RU w/no inhibitor [5] [%],% bound RU w/no inhibitor [6] [%],% bound RU w/no inhibitor [7] [%],% bound RU w/no inhibitor [8] [%],% bound RU w/no inhibitor [9] [%],% bound RU w/no inhibitor [10] [%],% bound RU w/no inhibitor [11] [%],% bound RU w/no inhibitor [12] [%],% bound RU w/no inhibitor [13] [%],% bound RU w/no inhibitor [14] [%],% bound RU w/no inhibitor [15] [%],% bound RU w/no inhibitor [16] [%],% bound RU w/no inhibitor [17] [%],% bound RU w/no inhibitor [18] [%],% bound RU w/no inhibitor [19] [%],% bound RU w/no inhibitor [20] [%],% bound RU w/no inhibitor [21] [%],Binder,other results
3.5e-09,1,1,1,100,100,87,66,19,1,1,2,3,1,97,80,20,2,2,3,"H4H10429P (antibody, human IgG4, V domains shown, H4H prefix means human IgG4 Fc) VH: QVQLVESGGGVVQPGRSLRLSCVASGFTVSSYGIHWVRQAPGKGLEWVSVIWYDGRNKDYADSVKGRFTISRDNSKNTVYLEMKGLRAEDTALYYCARDKTGDFDSWGQGTLVTVSS VL: DIQMTQSPSSLSASVGDRVTITCRASQNINSFLSWYQQKPGKAPKFLIYDASSIQSGAPSRFSGSGSGTDFTLTISSLQPEDFATYYCQQSYSSPFTFGQGTKLEIK",IC50 [M]; inhibition of 800 pM BMP9 in W-20-17/BRE-luc cells [1]: 8.1e-09 M; % bound RU w/no inhibitor [22]: 100%; % bound RU w/no inhibitor [23]: 87%; % bound RU w/no inhibitor [24]: 67%; % bound RU w/no inhibitor [25]: 19%; % bound RU w/no inhibitor [26]: 2%
> 1e-07,2,2,2,100,100,75,55,16,2,1,2,2,1,78,61,16,2,3,4,"H4H10436P2 (antibody, human IgG4, V domains shown, H4H prefix means human IgG4 Fc) VH: QVQLVESGGGVVQPGRSLRLTCVASGFTVSSYGMHWVRQAPGKGLEWVAVMFYDESKKYYADSVKGRFTISRDNSKNTLYLQMNSLRVEDTAVYYCARDEQLDFEYWGQGTLVTVSS VL: not shown",% bound RU w/no inhibitor [22]: 100%; % bound RU w/no inhibitor [23]: 80%; % bound RU w/no inhibitor [24]: 60%; % bound RU w/no inhibitor [25]: 19%; % bound RU w/no inhibitor [26]: 3%
